According to patent US20220153839A1 (NBE THERAPEUTICS, published 2022):
Changes are numbered by the printed parent chain.

B1: XBR1-402-G5-PNU antibody drug conjugate (other)
VH: QEQQKESGGGLFKPTDTLTLTCTASGFDISSYYMSWVRQAPGNGLEWIGAIGISGNAYYASWAKSRSTITRNTNLNTVTLKMTSLTAADTATYFCARDHPTYGMDLWGPGTLVTVSS
VL: SYELTQLPSVSVSLGQTARITCEGNNIGSKAVHWYQQKPGLAPGLLIYDDDERPSGVPDRFSGSNSGDTATLTISGAQAGDEADYYCQVWDSSAYVFGGGTQLTVTG
modifications: Gly5-EDA-PNU joined by sortase to the LPET of the C-terminal G5SLPETG tag of the full light chain; Gly5-EDA-PNU (PNU-159682 derivative) joined by sortase to the LPET of the C-terminal LPETG tag of the full heavy chain
B2: ERR1-Top43-G5-PNU (adc204) antibody drug conjugate (other)
VH: QSLEESGGRLVTPGTPLTLTCTVSGFSLSSYWMSWVRQAPGKGLEWIGAIYGSGNTYYASWAKGRFTISKTSTTVDLKITSPTTEDTATYFCARDVHSTATDLWGPGTLVTISS
VL: SYELTQLPSVSVSLGQTARITCGGNNIGSKAVNWYQQKPGLAPGLLIYNDDERPSGVPDRFSGSNSGDTATLTISGAQAGDEADYYCQLWDSSAGAYVFGGGTQLTVTG
modifications: Gly5-EDA-PNU joined by sortase to the C-terminal G5SLPETG tag of the full light chain; Gly5-EDA-PNU joined by sortase to the C-terminal LPETG tag of the full heavy chain
B3: 2A2 (mAb066) IgG (antibody)
heavy: not shown
light: DIVMTQSQKIMSTTVGDRVSITCKASQNVDAAVAWYQQKPGQSPKLLIYSASNRYTGVPDRFTGSGSGTDFTLTISNMQSEDLADYFCQQYDIYPYTFGGGTKLEIKRTVAAPSVFIFPPSDEQLKSGTASVVCLLNNFYPREAKVQWKVDNALQSGNSQESVTEQDSKDSTYSLSSTLTLSKADYEKHKVYACEVTHQGLSSPVTKSFNRGECGGGGSLPETGGWSHPQFEK
notes: Known anti-ROR1 antibody (WO 2010/124188), murine-human chimeric IgG1; tags HC: LPETG-Strep, LC: G5SLPETG-Strep; they may be variable domains only
B4: HuXBR1-402(15) (mAb290) (antibody, human IgG1, V domains shown)
VH: QVQLQESGPGLVKPSETLSLTCTVSGFDISSYYMSWVRQPPGKGLEWIGAIGISGNAYYASWAKSRVTISRDTSKNQFSLKLSSVTAADTAVYYCARDHPTYGMDLWGPGTLVTVSS
VL: SYELTQPPSVSVAPGKTARITCEGNNIGSKAVHWYQQKPGQAPVLVIYDDDERPSGIPERFSGSNSGNTATLTISRVEAGDEADYYCQVWDSSAYVFGGGTKLTVLG
notes: Humanized IgG (human IgG1 constant regions, lambda)
B5: HuXBR1-402(3) (mAb288) (antibody, human IgG1, V domains shown)
VH: B4 VH with Q5R
VL: B4 VL with P8L, P14L, K16Q, V77A, E78Q
notes: as for B4
B6: HuXBR1-402(8) (mAb289) (antibody, human IgG1, V domains shown)
VH: B4 VH
VL: SYELTQPPSVSVSPGQTAIITCEGNNIGSKAVHWYQQKPGLSPVLVIYDDDERPSGIPERFSGSNSGNTATLTVSGTQDMDEADYYCQVWDSSAYVFGGGTKLTVLG
notes: as for B4
B7: HuXBR1-402(17) (mAb291) (antibody, human IgG1, V domains shown)
VH: B4 VH with Q5R
VL: B4 VL
notes: as for B4
B8: HuXBR1-402(19) (mAb295) (antibody, human IgG1, V domains shown)
VH: B4 VH with K43N
VL: B4 VL
notes: as for B4
B9: HuXBR1-402(26) (mAb296) (antibody, human IgG1, V domains shown)
VH: B4 VH with K43N
VL: B4 VL with P8L, P14L, K16Q, Q41L, V77A, E78Q, K102Q
notes: as for B4
B10: ERR1-TOP54 (antibody, IgG1, V domains shown)
VH: QSLEESGGRLVTPGTPLTLTCTASGFSLSDYYMSWVRQAPGEGLEWIGTIYGGSGNTWYATWAKGRFTISKTSTTVDLKITSPTTEDTATYFCARDFGLSTGGLWGPGTLVTISS
VL: B2 VL with N26S, N49D, G95R, Y97F
notes: also called ERR1-TOP54 chimeric rabbit/human IgG1
B11: ERR1-TOP43 chimeric rabbit/human IgG1 (antibody, V domains shown)
VH: B2 VH
VL: B2 VL
notes: Rabbit variable domains on human IgG1 constant regions (pCEP4), lambda light chain, from HEK 293F cells

Columns and labels:
[1] = target: T1, human ROR1, full length, on cells (human, UniProt Q01973 30-937); assay: cell-based or functional assay
[2] = target: T1, human ROR1, full length, on cells; assay: cell-based or functional assay; remark: listed apart in the source
[3] = target: T1, human ROR1, full length, on cells; assay: cell-based or functional assay; remark: listed apart in the source
[4] = target: T1, human ROR1, full length, on cells; assay: cell-based or functional assay; remark: listed apart in the source
[5] = target: T1, human ROR1, full length, on cells; assay: cell-based or functional assay; remark: listed apart in the source
[6] = target: T1, human ROR1, full length, on cells; assay: cell-based or functional assay; remark: listed apart in the source
[7] = target: T1, human ROR1, full length, on cells; assay: cell-based or functional assay; remark: listed apart in the source
[8] = target: T1, human ROR1, full length, on cells; assay: flow cytometry on human cancer cell lines; 2A2 2 µg/mL; anti-human IgG (Fcγ) PE
Description: 5×10⁵ of each cell type were added per well to 96-well plates. Plates were centrifuged (3 min, 1300 rpm) with re-suspension in buffer (PBS supplemented with 2% (v/v) of FCS). […] Plates were then incubated on ice for 30 min and washed with 200 μL of buffer prior to resuspension in 200 μL of buffer supplemented with anti-human IgG antibody (Fc gamma-specific) PE (eBioscience 12-4998-82) at a 1:250 dilution. Following 30 min incubation on ice and one washing, cells were analyzed using a FACSCalibur instrument (BD Biosciences) and data was analyzed using FlowJo analytical software (Tree Star, Ashland, Oreg.).

[9] = target: T2, StrepII-tagged human ROR1 extracellular domain (human, UniProt Q01973 30-406); assay: SPR (Biacore T200), mAb captured by anti-human Fc-gamma IgG on CM5, ROR1-strep as analyte
T2 construct: extracellular domain; also called ROR1-strep; strep-tagged human ROR1

[10] = target: T2, StrepII-tagged human ROR1 extracellular …; assay: SPR (Biacore T200); mAb captured by goat anti-human Fcγ IgG on CM5; ROR1-strep as analyte (Example 8)
Description: Affinity screening was then performed to select the best binders. Affinities were determined using a Biacore T200 instrument (GE Healthcare, Buckinghamshire, UK) and data was evaluated using Biacore Evaluation T200 V2.0 software. To capture mAbs, goat α-human Fc-gamma-specific IgG (Jackson ImmunoResearch, #109-005-098) was covalently immobilized on a CM5 chip (GE Healthcare, #BR-1005-30).

hROR2 = target: T3, hROR2 (human, UniProt Q01974); assay: flow cytometry on T47D cells (ROR2 positive, ROR1 negative); APC goat anti-human Fcγ
T3 construct: full length, on the cell surface; also called 63-12 / hROR2; ROR2 on T47D cells
Description: Flow cytometry: Cells were stained using standard flow cytometry methodology. Briefly, for purified anti-ROR1 Fab (FIG. 3), 0.1-1×10⁶ cells were stained with 1000 ng/100 μL of Fab on ice for 1 h. After washing twice with ice-cold flow cytometry buffer (PBS containing 1% (v/v) BSA, 0.1% sodium azide and 1 mM EDTA), the cells were incubated with a 1:1000 dilution of a mouse anti-His tag mAb conjugated to Alexa Fluor 488 (Qiagen) in 100 μL flow cytometry buffer on ice for 30 min. For purified anti-ROR1 IgG1 (FIG. 8), 0.1-1×10⁶ cells were blocked by 4% goat serum for 15 min at room temperature and then incubated with 100 ng/100 μL of IgG on ice for 1 h. After washing twice with ice-cold flow cytometry buffer, cells were stained with a 1:500 dilution of goat anti-human IgG, Fcγ pAbs conjugated to APC (Jackson ImmunoResearch) in 100 μL flow cytometry buffer on ice for 30 min. For commercial goat anti human ROR1 polyclonal antibody (FIG. 8), 0.1-1×10⁶ cells were stained with 200 ng/100 μL of Ab on ice for 1 h. […] Finally, 4′,6-diamidino-2-phenylindole (DAPI) was added to a final concentration of 100 ng/mL to exclude dead cells from the analysis. Cells were analyzed using a FACSCalibur instrument (BD Biosciences) and FlowJo analytical software (Tree Star, Ashland, Oreg.).

T1 sequence (Q01973 30-937): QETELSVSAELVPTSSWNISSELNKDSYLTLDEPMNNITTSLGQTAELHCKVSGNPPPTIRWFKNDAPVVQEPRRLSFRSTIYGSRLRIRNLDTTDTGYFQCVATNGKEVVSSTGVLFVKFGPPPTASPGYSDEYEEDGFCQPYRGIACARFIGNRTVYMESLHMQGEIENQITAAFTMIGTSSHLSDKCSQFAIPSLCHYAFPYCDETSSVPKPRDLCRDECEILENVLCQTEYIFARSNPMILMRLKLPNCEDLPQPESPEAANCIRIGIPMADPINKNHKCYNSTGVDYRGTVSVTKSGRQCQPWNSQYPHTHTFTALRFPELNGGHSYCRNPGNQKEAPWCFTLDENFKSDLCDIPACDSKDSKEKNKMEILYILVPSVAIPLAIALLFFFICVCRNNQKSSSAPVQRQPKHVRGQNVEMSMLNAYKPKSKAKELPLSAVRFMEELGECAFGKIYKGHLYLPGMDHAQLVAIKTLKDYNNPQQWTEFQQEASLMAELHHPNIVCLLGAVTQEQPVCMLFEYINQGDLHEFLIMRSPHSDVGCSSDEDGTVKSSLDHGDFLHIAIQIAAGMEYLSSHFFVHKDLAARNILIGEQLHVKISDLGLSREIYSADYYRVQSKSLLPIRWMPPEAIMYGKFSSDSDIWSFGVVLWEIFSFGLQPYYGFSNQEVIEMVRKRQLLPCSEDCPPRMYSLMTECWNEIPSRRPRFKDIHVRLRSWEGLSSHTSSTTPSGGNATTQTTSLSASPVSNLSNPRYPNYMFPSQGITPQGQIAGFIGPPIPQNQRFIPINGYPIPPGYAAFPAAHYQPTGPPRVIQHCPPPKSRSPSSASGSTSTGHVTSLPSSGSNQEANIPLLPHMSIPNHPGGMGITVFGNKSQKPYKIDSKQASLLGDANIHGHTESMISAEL
T2 sequence (Q01973 other isoform, or with tags, fused parts or gaps): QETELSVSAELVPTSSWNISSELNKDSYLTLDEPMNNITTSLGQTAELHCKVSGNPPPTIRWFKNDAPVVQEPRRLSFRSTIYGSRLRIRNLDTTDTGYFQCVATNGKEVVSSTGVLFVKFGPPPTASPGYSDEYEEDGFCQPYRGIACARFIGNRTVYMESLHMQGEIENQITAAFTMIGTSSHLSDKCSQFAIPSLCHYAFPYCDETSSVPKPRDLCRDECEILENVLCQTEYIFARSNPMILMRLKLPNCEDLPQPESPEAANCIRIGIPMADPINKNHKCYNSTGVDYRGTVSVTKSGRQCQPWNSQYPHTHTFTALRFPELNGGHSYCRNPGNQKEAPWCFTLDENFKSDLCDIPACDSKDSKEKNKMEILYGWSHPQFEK
T3 sequence (Q01974 34-943 limits assumed): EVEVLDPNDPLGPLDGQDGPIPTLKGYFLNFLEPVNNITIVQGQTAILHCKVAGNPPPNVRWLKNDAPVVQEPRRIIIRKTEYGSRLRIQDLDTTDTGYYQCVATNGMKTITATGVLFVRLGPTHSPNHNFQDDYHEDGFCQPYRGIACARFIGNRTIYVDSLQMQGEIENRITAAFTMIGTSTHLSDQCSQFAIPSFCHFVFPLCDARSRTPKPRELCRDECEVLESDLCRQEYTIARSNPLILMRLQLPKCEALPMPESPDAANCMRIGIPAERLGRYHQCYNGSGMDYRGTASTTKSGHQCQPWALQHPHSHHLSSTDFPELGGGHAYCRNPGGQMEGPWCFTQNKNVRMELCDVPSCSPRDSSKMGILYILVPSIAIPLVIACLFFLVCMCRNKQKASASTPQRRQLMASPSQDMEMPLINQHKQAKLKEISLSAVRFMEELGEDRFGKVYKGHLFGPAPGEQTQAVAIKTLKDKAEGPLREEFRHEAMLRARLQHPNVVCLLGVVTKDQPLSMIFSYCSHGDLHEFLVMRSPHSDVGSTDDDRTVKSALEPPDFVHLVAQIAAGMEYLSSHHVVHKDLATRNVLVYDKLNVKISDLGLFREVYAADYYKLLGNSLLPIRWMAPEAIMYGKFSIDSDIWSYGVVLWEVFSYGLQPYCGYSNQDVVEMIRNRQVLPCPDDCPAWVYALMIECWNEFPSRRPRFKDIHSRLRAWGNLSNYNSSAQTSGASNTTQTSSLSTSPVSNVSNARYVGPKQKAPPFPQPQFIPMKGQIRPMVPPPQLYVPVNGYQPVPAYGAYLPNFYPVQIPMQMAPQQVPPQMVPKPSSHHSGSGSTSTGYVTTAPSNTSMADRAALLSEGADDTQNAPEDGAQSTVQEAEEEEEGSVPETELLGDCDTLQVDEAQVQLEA

| Binder | Kd [9] | Kd [10] | koff [10] | kon [10] | also measured |
| --- | --- | --- | --- | --- | --- |
| B1 | – | – | – | – | IC50 (cell killing of 697 cells, luminescence) [1]: 0.0757 µg/mL; IC50 (cell killing of Kasumi-2 cells, luminescence) [2]: 0.0012 µg/mL; IC50 of in vitro cell killing, hROR1-overexpressing EMT-6 (clone 14) [3]: 0.015 µg/mL; IC50 of in vitro cell killing, hROR1-overexpressing EMT-6 [4]: 0.0011 µg/mL; IC50 of in vitro cell killing, HS 578T cells (hROR1 status positive) [5]: 1.4 µg/mL; IC50 values on 697 cells (in vitro cell killing) [6]: 0.212 µg/mL; IC50 of in vitro cell killing, 697 cells [7]: 0.0176 µg/mL |
| B2 | – | – | – | – | IC50 of in vitro cell killing, HS 578T cells (hROR1 status positive) [5]: 0.707 µg/mL; IC50 of in vitro cell killing, MDA-MD-468 cells (hROR1 status positive) [5]: 0.143 µg/mL |
| B3 | – | – | – | – | binding result [8]: binds |
| B4 | 3.55 nM | 3.5 nM | 0.00394 s⁻¹ | 1.11e+06 M⁻¹ s⁻¹ | – |
| B5 | 3.16 nM | 3.2 nM | 0.00375 s⁻¹ | 1.19e+06 M⁻¹ s⁻¹ | – |
| B6 | 2.14 nM | 2.1 nM | 0.00276 s⁻¹ | 1.29e+06 M⁻¹ s⁻¹ | – |
| B7 | 3.34 nM | 3.4 nM | 0.00322 s⁻¹ | 960000 M⁻¹ s⁻¹ | – |
| B8 | 2.98 nM | 3 nM | 0.00332 s⁻¹ | 1.11e+06 M⁻¹ s⁻¹ | – |
| B9 | 3.13 nM | 3.1 nM | 0.00328 s⁻¹ | 1.05e+06 M⁻¹ s⁻¹ | – |
| B10 | – | – | – | – | binding result (hROR2): no binding (tested: 100 ng/100 µL) |
| B11 | – | – | – | – | binding result (hROR2): no binding (tested: 100 ng/100 µL) |
